Ends that are not written are not given here. * marks the point of attachment. Biotin = O=C1N[C@H]2[C@H](CS[C@H]2CCCCC(=O)*)N1
B1: FceRIb C-terminal PL peptide AA25L, biotinylated (peptide)
peptide: Biotin-YSATYSELEDPGEMSPPIDL
notes: also called Fc epsilon receptor beta I chain

Molecular target: T1, GST-SYN1a PDZ domain fusion protein (alpha1-syntrophin AA96-189; PDZ domain 1 of 1) (UniProt P08515 1-218 = GST)
T1 construct: also called SYN 1 alpha; SYNTR 1 alpha
Assay: A/G assays

T1 sequence (P08515 1-218, tags or fused parts left off): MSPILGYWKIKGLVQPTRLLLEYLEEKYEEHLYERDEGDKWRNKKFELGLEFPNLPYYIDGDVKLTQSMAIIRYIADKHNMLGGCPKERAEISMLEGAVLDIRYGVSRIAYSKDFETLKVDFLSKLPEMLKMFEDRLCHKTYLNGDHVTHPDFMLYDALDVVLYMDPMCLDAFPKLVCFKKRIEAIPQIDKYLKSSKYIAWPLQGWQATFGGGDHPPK

Row | Binder | binding result
1 | Biotin-DTPSSSYTQSTMDHDLHDAL [CC CKR-4 C-terminal PL peptide AA44L, biotinylated] | no binding
2 | B1 | no binding

Molecular target: T2, GST-RGS12 PDZ domain fusion protein (human regulator of G-protein signalling 12 AA35-103; PDZ domain 1 of 1) (human, UniProt P08515 1-218 = GST)
T2 construct: also called RSG12
Assay: A/G assays

T2 sequence (P08515 1-218, tags or fused parts left off): as the sequence (P08515 1-218, tags or fused parts left off) above

Row | Binder | binding result
3 | Biotin-DTPSSSYTQSTMDHDLHDAL [CC CKR-4 C-terminal PL peptide AA44L, biotinylated] | no binding
4 | B1 | no binding

Molecular target: T3, GST-CBP PDZ domain fusion protein (Cytohesin binding protein HE AA85-175; PDZ domain 1 of 1) (UniProt P08515 1-218 = GST)
T3 construct: also called Prot
Assay: A/G assays

T3 sequence (P08515 1-218, tags or fused parts left off): as the sequence (P08515 1-218, tags or fused parts left off) above

Row | Binder | binding result
5 | Biotin-DTPSSSYTQSTMDHDLHDAL [CC CKR-4 C-terminal PL peptide AA44L, biotinylated] | no binding
6 | B1 | no binding

Molecular target: GST-MINT3 PDZ domain fusion protein (human MINT3 AA11-52; PDZ domain 1 of 1) (human, UniProt P08515 1-218 = GST)
Assay: A/G assays

Chain of GST-MINT3 PDZ domain fusion protein (human MINT3 AA11-52; PDZ domain 1 of 1) (P08515 1-218, tags or fused parts left off): as the sequence (P08515 1-218, tags or fused parts left off) above

Row | Binder | binding result
7 | Biotin-DTPSSSYTQSTMDHDLHDAL [CC CKR-4 C-terminal PL peptide AA44L, biotinylated] | no binding
8 | B1 | no binding

Molecular target: GST-PTN-4 PDZ domain fusion protein (protein-tyrosine phosphatase meg1 AA774-862; PDZ domain 1 of 1) (UniProt P08515 1-218 = GST)
Assay: A/G assays

Row | Binder | binding result
9 | Biotin-DTPSSSYTQSTMDHDLHDAL [CC CKR-4 C-terminal PL peptide AA44L, biotinylated] | no binding
10 | B1 | no binding

Molecular target: T4, GST-TAX43 PDZ domain fusion protein (human tax interaction protein 43 AA15-85; PDZ domain 1 of 1) (human, UniProt P08515 1-218 = GST)
T4 construct: also called TX 43
Assay: A/G assays

T4 sequence (P08515 1-218, tags or fused parts left off): as the sequence (P08515 1-218, tags or fused parts left off) above

Row | Binder | binding result
11 | Biotin-DTPSSSYTQSTMDHDLHDAL [CC CKR-4 C-terminal PL peptide AA44L, biotinylated] | no binding
12 | B1 | no binding

Molecular target: GST-MPP1 PDZ domain fusion protein (55 Kd erythrocyte membrane protein AA101-186; PDZ domain 1 of 1) (UniProt P08515 1-218 = GST)
Assay: A/G assays

Chain of GST-MPP1 PDZ domain fusion protein (55 Kd erythrocyte membrane protein AA101-186; PDZ domain 1 of 1) (P08515 1-218, tags or fused parts left off): as the sequence (P08515 1-218, tags or fused parts left off) above

Row | Binder | binding result
13 | Biotin-DTPSSSYTQSTMDHDLHDAL [CC CKR-4 C-terminal PL peptide AA44L, biotinylated] | no binding
14 | B1 | no binding

Molecular target: GST-TIAM1 PDZ domain fusion protein (T-lymphoma invasion and metastasis inducing protein 1 AA1001-1088); PDZ 1 … (UniProt P08515 1-218 = GST)
Assay: A/G assays

Chain of GST-TIAM1 PDZ domain fusion protein (T-lymphoma invasion and metastasis inducing protein 1 AA1001-1088); PDZ 1 … (P08515 1-218, tags or fused parts left off): as the sequence (P08515 1-218, tags or fused parts left off) above

Row | Binder | binding result
15 | Biotin-DTPSSSYTQSTMDHDLHDAL [CC CKR-4 C-terminal PL peptide AA44L, biotinylated] | no binding
16 | B1 | no binding

Molecular target: T5, GST-TAX33 PDZ domain fusion protein (tax interaction protein 33 AA73-162; PDZ domain 1 of 1) (UniProt P08515 1-218 = GST)
T5 construct: also called TX33
Assay: A/G assays

T5 sequence (P08515 1-218, tags or fused parts left off): as the sequence (P08515 1-218, tags or fused parts left off) above

Row | Binder | binding result
17 | Biotin-DTPSSSYTQSTMDHDLHDAL [CC CKR-4 C-terminal PL peptide AA44L, biotinylated] | no binding
18 | B1 | no binding

Molecular target: T6, GST-MPP2 PDZ domain fusion protein (maguk p55 subfamily member 2 (DLG2) AA185-273; PDZ domain 1 of 1) (UniProt P08515 1-218 = GST)
T6 construct: also called MMP2
Assay: A/G assays

T6 sequence (P08515 1-218, tags or fused parts left off): as the sequence (P08515 1-218, tags or fused parts left off) above

Row | Binder | binding result
19 | Biotin-DTPSSSYTQSTMDHDLHDAL [CC CKR-4 C-terminal PL peptide AA44L, biotinylated] | no binding
20 | B1 | no binding

Molecular target: GST-NOS1 PDZ domain fusion protein (human neuronal nitric oxide synthase; PDZ domain 1 of 1) (human, UniProt P08515 1-218 = GST)
Assay: A/G assays

Row | Binder | binding result
21 | Biotin-DTPSSSYTQSTMDHDLHDAL [CC CKR-4 C-terminal PL peptide AA44L, biotinylated] | no binding
22 | B1 | no binding

Molecular target: T7, GST-CASK PDZ domain fusion protein (CASK AA495-584; PDZ domain 1 of 1) (mouse, UniProt P08515 1-218 = GST)
T7 construct: also called mCASK
Assay: A/G assays

Row | Binder | binding result
23 | Biotin-DTPSSSYTQSTMDHDLHDAL [CC CKR-4 C-terminal PL peptide AA44L, biotinylated] | no binding
24 | B1 | no binding

Molecular target: T8, GST-KIAA0316 PDZ domain fusion protein (KIAA0316 AA197-284; PDZ domain 1 of 1) (UniProt P08515 1-218 = GST)
T8 construct: also called K316
Assay: A/G assays

T8 sequence (P08515 1-218, tags or fused parts left off): as the sequence (P08515 1-218, tags or fused parts left off) above

Row | Binder | binding result
25 | Biotin-DTPSSSYTQSTMDHDLHDAL [CC CKR-4 C-terminal PL peptide AA44L, biotinylated] | no binding
26 | B1 | no binding

Molecular target: T9, GST-NeDLG PDZ domain fusion protein (presynaptic protein sao102, neuroendocrine-dlg; PDZ domains 1-2 of 3) (UniProt P08515 1-218 = GST)
T9 construct: also called NeDLG1
Assay: A/G assays

T9 sequence (P08515 1-218, tags or fused parts left off): as the sequence (P08515 1-218, tags or fused parts left off) above

Row | Binder | binding result
27 | Biotin-DTPSSSYTQSTMDHDLHDAL [CC CKR-4 C-terminal PL peptide AA44L, biotinylated] | no binding
28 | B1 | no binding

Molecular target: GST-LIM PDZ domain fusion protein (Human LIM protein AA29-112; PDZ domain 1 of 1) (human, UniProt P08515 1-218 = GST)
Assay: A/G assays

Chain of GST-LIM PDZ domain fusion protein (Human LIM protein AA29-112; PDZ domain 1 of 1) (P08515 1-218, tags or fused parts left off): as the sequence (P08515 1-218, tags or fused parts left off) above

Row | Binder | binding result
29 | Biotin-DTPSSSYTQSTMDHDLHDAL [CC CKR-4 C-terminal PL peptide AA44L, biotinylated] | no binding
30 | B1 | no binding

Molecular target: GST-PSD95 PDZ domain fusion protein (human post-synaptic density protein 95 AA387-724; PDZ domains 1-3 of 3) (human, UniProt P08515 1-218 = GST)
Assay: A/G assays

Chain of GST-PSD95 PDZ domain fusion protein (human post-synaptic density protein 95 AA387-724; PDZ domains 1-3 of 3) (P08515 1-218, tags or fused parts left off): as the sequence (P08515 1-218, tags or fused parts left off) above

Row | Binder | binding result
31 | Biotin-DTPSSSYTQSTMDHDLHDAL [CC CKR-4 C-terminal PL peptide AA44L, biotinylated] | no binding
32 | B1 | no binding

Molecular target: T10, GST-41.8 kD PDZ domain fusion protein (hypothetical 41.8 kD protein AA4-85; PDZ domain 1 of 1) (UniProt P08515 1-218 = GST)
T10 construct: also called hypoth
Assay: A/G assays

T10 sequence (P08515 1-218, tags or fused parts left off): as the sequence (P08515 1-218, tags or fused parts left off) above

Row | Binder | binding result
33 | Biotin-DTPSSSYTQSTMDHDLHDAL [CC CKR-4 C-terminal PL peptide AA44L, biotinylated] | no binding
34 | B1 | no binding

Molecular target: T11, GST-KIAA0559 PDZ domain fusion protein (KIAA0559 AA766-870; PDZ1 of 1) (UniProt P08515 1-218 = GST)
T11 construct: also called K559
Assay: A/G assays

T11 sequence (P08515 1-218, tags or fused parts left off): as the sequence (P08515 1-218, tags or fused parts left off) above

Row | Binder | binding result
35 | Biotin-DTPSSSYTQSTMDHDLHDAL [CC CKR-4 C-terminal PL peptide AA44L, biotinylated] | no binding
36 | B1 | no binding

Molecular target: T12, GST-TAX2 PDZ domain fusion protein (human tax interaction protein 2 AA54-140; PDZ domain 1 of 1) (human, UniProt P08515 1-218 = GST)
T12 construct: also called TX 2
Assay: A/G assays

T12 sequence (P08515 1-218, tags or fused parts left off): as the sequence (P08515 1-218, tags or fused parts left off) above

Row | Binder | binding result
37 | Biotin-DTPSSSYTQSTMDHDLHDAL [CC CKR-4 C-terminal PL peptide AA44L, biotinylated] | no binding
38 | B1 | no binding

Molecular target: GST-prIL16 PDZ domain fusion protein (putative interleukin 16 precursor AA170-383; PDZ domains 1-2 of 2) (UniProt P08515 1-218 = GST)
Assay: A/G assays

Chain of GST-prIL16 PDZ domain fusion protein (putative interleukin 16 precursor AA170-383; PDZ domains 1-2 of 2) (P08515 1-218, tags or fused parts left off): as the sequence (P08515 1-218, tags or fused parts left off) above

Row | Binder | binding result
39 | Biotin-DTPSSSYTQSTMDHDLHDAL [CC CKR-4 C-terminal PL peptide AA44L, biotinylated] | no binding
40 | B1 | no binding

Molecular target: GST-AF6 PDZ domain fusion protein (af-6 protein AA985-1077; PDZ domain 1 of 1) (UniProt P08515 1-218 = GST)
Assay: A/G assays

Chain of GST-AF6 PDZ domain fusion protein (af-6 protein AA985-1077; PDZ domain 1 of 1) (P08515 1-218, tags or fused parts left off): as the sequence (P08515 1-218, tags or fused parts left off) above

Row | Binder | binding result
41 | Biotin-DTPSSSYTQSTMDHDLHDAL [CC CKR-4 C-terminal PL peptide AA44L, biotinylated] | no binding
42 | B1 | no binding

Molecular target: T13, GST-KIAA0303 PDZ domain fusion protein (KIAA0303 AA652-742; PDZ domain 1 of 1) (UniProt P08515 1-218 = GST)
T13 construct: also called K303
Assay: A/G assays

Row | Binder | binding result
43 | Biotin-DTPSSSYTQSTMDHDLHDAL [CC CKR-4 C-terminal PL peptide AA44L, biotinylated] | no binding
44 | B1 | no binding

Molecular target: GST-DVL1 PDZ domain fusion protein (human dishevelled segment polarity protein homolog AA248-340); PDZ domain … (human, UniProt P08515 1-218 = GST)
Assay: A/G assays

Chain of GST-DVL1 PDZ domain fusion protein (human dishevelled segment polarity protein homolog AA248-340); PDZ domain … (P08515 1-218, tags or fused parts left off): as the sequence (P08515 1-218, tags or fused parts left off) above

Row | Binder | binding result
45 | Biotin-DTPSSSYTQSTMDHDLHDAL [CC CKR-4 C-terminal PL peptide AA44L, biotinylated] | no binding
46 | B1 | no binding

Molecular target: GST-LIMK2 PDZ domain fusion protein (human LIM domain kinase 2 AA185-275; PDZ domain 1 of 1) (human, UniProt P08515 1-218 = GST)
Assay: A/G assays

Chain of GST-LIMK2 PDZ domain fusion protein (human LIM domain kinase 2 AA185-275; PDZ domain 1 of 1) (P08515 1-218, tags or fused parts left off): as the sequence (P08515 1-218, tags or fused parts left off) above

Row | Binder | binding result
47 | Biotin-DTPSSSYTQSTMDHDLHDAL [CC CKR-4 C-terminal PL peptide AA44L, biotinylated] | no binding
48 | B1 | no binding

Molecular target: T14, GST-TAX40 PDZ domain fusion protein (human tax interaction protein 40 AA35-137; PDZ domain 1 of 1) (human, UniProt P08515 1-218 = GST)
T14 construct: also called TX 40
Assay: A/G assays

T14 sequence (P08515 1-218, tags or fused parts left off): as the sequence (P08515 1-218, tags or fused parts left off) above

Row | Binder | binding result
49 | Biotin-DTPSSSYTQSTMDHDLHDAL [CC CKR-4 C-terminal PL peptide AA44L, biotinylated] | no binding
50 | B1 | no binding

— patent US20090149339A1 (published 2009)
